# Measurements reported in the supplement of paper PMC9112550, “Optimization of the antimicrobial peptide Bac7 by deep mutational scanning” (BMC Biology, 2022).
# System: Escherichia coli TOP10
# Test: shrunken log2 fold change of peptide-encoding DNA abundance (4.5 h post-induction vs induction); higher = less antimicrobial activity (less host growth inhibition)
# Conditions: time post-induction: 4.5 h; library: site-saturation at positions 5, 18, 19, 20
# 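Note: peptides expressed intracellularly from a pBAD plasmid library in pooled LB shake-flask culture, induced with 0.3% L-arabinose, DNA abundance read by NGS, three biological replicates, DESeq2 with apeglm shrinkage.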
row,Sequence,shrunken log2 fold change
1,RRIRERPPRLPRPRPRPEPGPRP,0.667
2,RRIRVRPPRLPRPRPRPHAVPRP,-0.318
3,RRIRVRPPRLPRPRPRPVIAPRP,-0.0291
4,RRIRPRPPRLPRPRPRPEMDPRP,0.116
5,RRIRGRPPRLPRPRPRPTWWPRP,0.906
6,RRIRFRPPRLPRPRPRPFHPPRP,0.039
7,RRIRERPPRLPRPRPRPGDAPRP,0.106
8,RRIRTRPPRLPRPRPRPMPEPRP,0.0253
9,RRIRYRPPRLPRPRPRPRFDPRP,-0.51
10,RRIRVRPPRLPRPRPRPREYPRP,0.0223
11,RRIRVRPPRLPRPRPRPCSVPRP,-0.0384
12,RRIRYRPPRLPRPRPRPEGTPRP,-0.0176
13,RRIRSRPPRLPRPRPRPGLTPRP,0.264
14,RRIRCRPPRLPRPRPRPWTIPRP,-0.0777
15,RRIRVRPPRLPRPRPRPLRTPRP,0.246
16,RRIRSRPPRLPRPRPRPVIHPRP,-0.127
17,RRIRLRPPRLPRPRPRPSIWPRP,-0.548
18,RRIRPRPPRLPRPRPRPRMNPRP,0.0159
19,RRIRTRPPRLPRPRPRPNSCPRP,0.0686
20,RRIRLRPPRLPRPRPRPDHMPRP,-0.0422

row,Sequence,shrunken log2 fold change
1,RRIRTRPPRLPRPRPRPKVEPRP,0.12
2,RRIRLRPPRLPRPRPRPMTIPRP,0.0154
3,RRIRARPPRLPRPRPRPKMGPRP,0.297
4,RRIRIRPPRLPRPRPRPMREPRP,0.0761
5,RRIRYRPPRLPRPRPRPMTMPRP,-0.615
6,RRIRARPPRLPRPRPRPHYQPRP,-0.459
7,RRIRIRPPRLPRPRPRPMISPRP,-0.00209
8,RRIRMRPPRLPRPRPRPDKDPRP,1.24
9,RRIRCRPPRLPRPRPRPAPDPRP,0.576
10,RRIRHRPPRLPRPRPRPMMWPRP,-0.0542
11,RRIRNRPPRLPRPRPRPRRAPRP,0.604
12,RRIRDRPPRLPRPRPRPDRVPRP,-0.0392
13,RRIRLRPPRLPRPRPRPRCTPRP,0.0989
14,RRIRWRPPRLPRPRPRPPMCPRP,0.252
15,RRIRMRPPRLPRPRPRPYEPPRP,-0.352
16,RRIRWRPPRLPRPRPRPFMTPRP,0.183
17,RRIRDRPPRLPRPRPRPVPLPRP,0.0621
18,RRIRARPPRLPRPRPRPLMNPRP,-0.178
19,RRIRRRPPRLPRPRPRPFTDPRP,-0.0197
20,RRIRDRPPRLPRPRPRPCDWPRP,0.0416

row,Sequence,shrunken log2 fold change
1,RRIRFRPPRLPRPRPRPHGIPRP,-0.00151
2,RRIRKRPPRLPRPRPRPWIDPRP,-0.00174
3,RRIRNRPPRLPRPRPRPVEVPRP,-0.296
4,RRIRHRPPRLPRPRPRPKDYPRP,0.0577
5,RRIRYRPPRLPRPRPRPHAGPRP,0.0561
6,RRIRCRPPRLPRPRPRPNCEPRP,0.223
7,RRIRFRPPRLPRPRPRPELHPRP,-0.235
8,RRIRSRPPRLPRPRPRPQRAPRP,0.123
9,RRIRTRPPRLPRPRPRPSLAPRP,0.105
10,RRIRARPPRLPRPRPRPHNLPRP,-0.201
11,RRIRDRPPRLPRPRPRPRNHPRP,-0.641
12,RRIRMRPPRLPRPRPRPRRSPRP,0.438
13,RRIRFRPPRLPRPRPRPMSWPRP,0.131
14,RRIRLRPPRLPRPRPRPGAMPRP,0.34
15,RRIRERPPRLPRPRPRPVRQPRP,0.412
16,RRIRHRPPRLPRPRPRPFMCPRP,-0.57
17,RRIRRRPPRLPRPRPRPQDKPRP,-0.289
18,RRIRARPPRLPRPRPRPNFWPRP,0.352
19,RRIRVRPPRLPRPRPRPVTDPRP,-0.171
20,RRIRMRPPRLPRPRPRPMWHPRP,0.208
